Our source for the Km and kcat/Km values is article PMC4307304, “The Oxidative Fermentation of Ethanol in Gluconacetobacter diazotrophicus Is a Two-Step Pathway Catalyzed by a Single Enzyme: Alcohol-Aldehyde Dehydrogenase (ADHa)” (International Journal of Molecular Sciences, 2015).

Substrate in the data set “purified protein”: CCO
In words: purified protein. The conditions noted are these: quinone analogue Q1 or Q2 100 uM, pH 6.0 phosphate, 30 °C, Triton X-100.

Substrate in data set [1]: CC=O
Kind of data set: oxygen consumption (Clark electrode), oxidase activity of purified ADHa coupled to ADH-deficient Ga. diazotrophicus membranes. Type of data set: biochemical, Gluconacetobacter diazotrophicus. The conditions noted are these: quinone analogue Q1 or Q2 100 uM, pH 6.0 phosphate, 30 °C, Triton X-100, text b13 calls the acetaldehyde constants of both assays the same, although the table prints 3.7 × 10^−4 for the dehydrogenase. An excerpt: oxygen consumption (Clark electrode), oxidase activity of purified ADHa coupled to ADH-deficient Ga. diazotrophicus membranes on ADHa

B1: ADHa (Gluconacetobacter diazotrophicus PA1 5) (protein)
chain: ESEFGATGEAIIHADDHPGDWLTYGRTYSEQRYSPLDQINRSNVGNLKLAWYYDLDTNRGQEGTPLIVDGVMYATTNWSKMKALDAATGKLLWAYDPRVPGNIADKGCCDTVNRGAAYWNGKVYFGTFDGRLIALDAKTGKLVWSVNTIPADAALGHQRSYTVDGAPRIAKGRVIIGNGGSEFGARGFVSAFDAETGKLDWRFYTVPNAQNKPDNAPSDAVLMSKAYPTWSPTGAWTTQGGGGTVWDSIVYDPVTDLVYLGVGNGSPWNYKFRSDGKGDNLFLGSIVALKPETGEYVWHFQETPMDQWDYTSVQQIMTLDLPINGQTRHVIVHAPKNGFFYIIDAKTGEFLSGKNYVYVNWASGLDPKTGRPIYNPDALYTLNGKEWYGIPGDLGGHNFAAMAFSPRTGLVYIPAQQVPFLYTSQVGGFKPHPDSWNLGLDMNKVGVTDSPEAKQAFIKDLKGWIVAWDPVKQQEAFRVDHKGPWNGGIVATGGDLLFQGLANGEFHAYDATNGADLFHFAAQSGIIAPPVTYMANGKQYVAVEVGWGGIYPFFLGGLARTSGWTVNHSRVIAFSLDGAAKLPPQNDKGFLPVKPPAQFDGKRTDNGYFEFQTFCAACHGDNAEAGGVLPDLRWSGAIRHQDAFYNVVGRGALTAYGMDRFDASMKPEQIEDIRQFLIKRSNDTYQREVDARKNVDGIPAQ
notes: native, purified from membranes with Triton X-100; heterodimer ~72 kDa (S-I) and ~44 kDa (S-II); with Alcohol dehydrogenase (quinone), cytochrome c subunit
On to B1, for which, in the data set “purified protein”, the Km – broadly, the substrate concentration at which the rate is half of its maximum – was determined as 76 µM and the kcat/Km (as a rule, the second-order rate constant that governs catalysis at low substrate concentration) amounted to 1.8e+09 M⁻¹ s⁻¹. Besides, in data set [1], the Km turned out to be 1100 µM and the kcat/Km was 1e+08 M⁻¹ s⁻¹.
